{"source": "patent US5336488A", "about": "“Method of treating or preventing mastitis in animals with involuting mammary glands by administering recombinant cytokines” (American Cyanamid Company, priority 1992, dated 1994)", "test_system": "PMNs from mammary glands early in involution", "experiment": "Phagocytic activity of cells from dry cow secretions after cytokine treatment", "type": "in vivo, bovine (Holstein dairy cattle)", "settings": "treatment with IL-2", "procedure": "FIG. 5: Phagocytic Ability of PMNs After Cytokine Administration from Mammary Glands Early in Involution\nA total of 4 mammary glands from 2 Holstein dairy cattle just entering the dry period are used. All quarters had been infected with S. aureaus for 4-6 weeks prior to treatment. Two of the quarters are treated with Cefa-Dri® and 2 quarters are treated with Cefa-Dri®+1 mg bovine IL-2 by intramammary infusion immediately following the last milking prior to drying-off. Dry cow secretions are then collected at day 3 and day 6 of the dry-off period and the number of viable somatic cells counted on a Coulter® with a C256 Channelyzer. The total percentage of phagocytosis by PMNs is quantitatively measured by flow cytometry by measuring the percentage of cells ingesting 2μ fluorescent beads.\nSomatic cells are isolated from mammary gland lavages on days 3 and 6 after treatment with Cefa-Dri® plu6 IL-2 or Cefa-Dri® alone. The cells are incubated with fluorescent latex micropheres and analyzed on the flow cytometer for their ability to phagocytize the beads.", "data": [{"molecule": "recombinant bovine interleukin-2 (protein, UniProt P05016 21-155, looked up, recombinant bovine interleukin-2, obtained from IMMUNEX Corp. Seattle, WA) Interleukin-2: APTSSSTGNTMKEVKSLLLDLQLLLEKVKNPENLKLSRMHTFDFYVPKVNATELKHLKCLLEELKLLEEVLNLAPSKNLNPREIKDSMDNIKRIVLELQGSETRFTCEYDDATVNAVEFLNKWITFCQSIYSTMT", "values": [{"measurement": "phagocytic activity of cells of the dry gland", "value": "seems to enhance the phagocytic activity of cells of the dry gland"}]}]}
